This passage reports dephosphorylation (radioactivity released as inorganic phosphate, percentage of total input) results from patent US6066472.

The target of this assay is myelin basic protein, 32P-labeled on tyrosine residues.

Consider “PTPL1 protein tyrosine phosphatase (from UniProt Q12923) (enzyme)”, for which the dephosphorylation (radioactivity released as inorganic phosphate, percentage of total input) was more than 30%.
